For this test, the target named is GST-N-WASP-PRD (human) (UniProt O00401). Put plainly: mass photometry.

The stoichiometry N is the number of molecules, sites or subunits per partner or assembly. In turn, “GST-N-WASP-PRD (from UniProt O00401 261-332) (domain or fragment)” gave a stoichiometry N of 2.

(Values after article doi:10.1101/2024.08.24.609485.)
